Here are results for two molecules from US20200247855A1, “THERAPY AND DIAGNOSTICS” (OXFORD UNIVERSITY INNOVATION LIMITED, priority 2017, published 2020).

Experiment [1] relates to leucocyte recruitment to the zymosan air-pouch. As to the kind of experiment: Zymosan subcutaneous dorsal air-pouch inflammation model. In kind it is in vivo. Particulars: 5 mg/kg, exudate at 24 hours, mouse. The method, then:
Zymosan or PBS (control) was injected into the air-pouch (a.p.) on day 6. Peptide or protein (blue) was injected into the air-pouch on day 6 at the time of zymosan injection and repeated 9 hours later. Air-pouch exudate was collected and analysed on day 7 by flow cytometry (FC).
G. Experimental design to assess efficacy of intraperitoneally administered peptide. This is identical to that used for locally administered peptide (above) except that peptide or protein was administered intraperitoneally (i.p.).
C57BL/6J male mice (25-30 g, 8-10-week-old) were obtained from Charles River (UK). They were group housed in temperature and humidity-controlled rooms, kept on a 12-hr light-dark cycle, and provided with food and water ad libitum. Air pouches were established at the dorsal side of the mice as described (Duarte, D. B. et al., Curr Protoc Pharmacol [2016]). […] Total numbers of leucocytes, neutrophils, monocytes, T-cells and eosinophils were counted using an Attune N×T flow cytometer following staining with cell specific antibodies. […]
To characterize the inflammatory subsets in the pouch, multi-colour fluorescence cell staining was conducted using the combination of the following antibodies for various immune cells. […] Data were analysed using FlowJo by an observer blinded to the treatment received. […]

Experiment [2] concerns the target CCL26_HUMAN (Homo sapiens, UniProt Q9Y258). Particulars: read-out: Kd, CCL26_HUMAN, previously described evasins; data obtained from publications [20-22,32]; cited from earlier work.
The target in experiment [3] is T1, CCL1_HUMAN (Homo sapiens, UniProt P22362).
T1 sequence (P22362 24-96): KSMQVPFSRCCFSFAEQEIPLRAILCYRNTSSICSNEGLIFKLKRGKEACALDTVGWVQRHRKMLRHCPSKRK
The settings on record: read-out: Kd, CCL1_HUMAN, previously described evasins; data obtained from publications [20-22,32]; cited from earlier work.

The target of experiment [4] is T2, CCL14_HUMAN (Homo sapiens, UniProt Q16627).
T2 sequence (Q16627 20-93): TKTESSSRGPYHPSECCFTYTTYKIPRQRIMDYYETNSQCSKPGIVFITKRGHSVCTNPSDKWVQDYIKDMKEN
Particulars: read-out: Kd, CCL14_HUMAN, previously described evasins; data obtained from publications [20-22,32]; cited from earlier work.

In experiment [5] the target is CCL20_HUMAN (Homo sapiens, UniProt P78556). The settings on record: data obtained from publications [20-22,32]; cited from earlier work.
The target in experiment [6] is T3, CCL16_HUMAN (Homo sapiens, UniProt O15467).
T3 sequence (O15467 24-120): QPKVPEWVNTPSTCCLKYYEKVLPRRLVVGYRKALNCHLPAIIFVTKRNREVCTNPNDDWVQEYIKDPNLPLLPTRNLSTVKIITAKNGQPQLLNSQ
Particulars: read-out: Kd, CCL16_HUMAN, previously described evasins; data obtained from publications [20-22,32]; cited from earlier work.

Experiment [7] deals with T4, CCL24_HUMAN (Homo sapiens, UniProt O00175).
T4 sequence (O00175 27-119): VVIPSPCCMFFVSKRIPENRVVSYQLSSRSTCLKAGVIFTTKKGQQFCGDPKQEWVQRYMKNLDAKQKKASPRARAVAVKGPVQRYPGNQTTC
Particulars: read-out: Kd, CCL24_HUMAN, previously described evasins; data obtained from publications [20-22,32]; cited from earlier work.

Experiment [8] deals with CCL11_HUMAN (Homo sapiens, UniProt P51671). Particulars: read-out: Kd, CCL11_HUMAN, previously described evasins; data obtained from publications [20-22,32]; cited from earlier work.
Sequence of CCL11_HUMAN (P51671 24-97): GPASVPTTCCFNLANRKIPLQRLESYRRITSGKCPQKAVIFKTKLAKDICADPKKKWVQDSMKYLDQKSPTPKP

Sequence of CCL26_HUMAN (Q9Y258 24-94): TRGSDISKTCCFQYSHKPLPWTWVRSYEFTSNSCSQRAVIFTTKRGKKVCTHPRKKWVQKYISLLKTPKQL
Sequence of CCL20_HUMAN (P78556 27-96): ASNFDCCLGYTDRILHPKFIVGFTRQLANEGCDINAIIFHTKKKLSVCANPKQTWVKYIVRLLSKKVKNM

B1: P672_RHIPU: tick CKBP, Rhipicephalus pulchellus (protein, listed as Rhipicephalus pulchellus)
chain: VCEVSEQEGVGEDNATEDEDYEDFFKPVTCYFANSTVGPLRPPNCTVVCTNNTAWWNDTKSDGGHCYSEYRPEKRTHSREIYNCTIGVCGNGTCIANHTYADCW
As for B1, the “Number of neutrophils, eosinophils, monocytes and T-cells recruited to the air-pouch, local administration” value in experiment [1] (injected into the air-pouch at 0 and 9 h) is “strong and significant reduction”. In addition, in experiment [1] (injected intraperitoneally at 0 and 9 h), the “Number of neutrophils, eosinophils, monocytes and T-cells recruited to the air-pouch, intraperitoneal administration” value is “substantial and significant reduction”.

B2: EVASIN4: previously described tick CKBP evasin 4, from Rhipicephalus sanguineus (protein, listed as Rhipicephalus sanguineus)
chain: EVPQMTSSSAPDLEEEDDYTAYAPLTCYFTNSTLGLLAPPNCSVLCNSTTTWFNETSPNNASCLLTVDFLTQDAILQENQPYNCSVGHCDNGTCAGPPRHAQCW
As to B2, the Kd in experiment [2] is 0.88 nM; in experiment [3] it was 0.2 nM; in experiment [4], 0.14 nM; in experiment [6], 0.26 nM; in experiment [7], 0.41 nM; in experiment [8], 0.34 nM. For the same molecule, in experiment [5], the “Kd, CCL20_HUMAN, previously described evasins” value is “No Binding”.
